The values that follow come from paper PMC3733153 (Journal of Experimental Botany, 2013).

The labels stand for the following.
B1: His-ROP10 (natural protein)
chain: not shown
B2: His-ROP2 (natural protein)
chain: not shown
B3: His-ROP6 (natural protein)
chain: not shown

For this assay, the target named is T1, GST-GDI1(3D), phosphomimetic form GDI1 S45D S48D T52D (Arabidopsis, UniProt Q9SFC6 1-240, S45D | S48D | T52D).
T1 sequence: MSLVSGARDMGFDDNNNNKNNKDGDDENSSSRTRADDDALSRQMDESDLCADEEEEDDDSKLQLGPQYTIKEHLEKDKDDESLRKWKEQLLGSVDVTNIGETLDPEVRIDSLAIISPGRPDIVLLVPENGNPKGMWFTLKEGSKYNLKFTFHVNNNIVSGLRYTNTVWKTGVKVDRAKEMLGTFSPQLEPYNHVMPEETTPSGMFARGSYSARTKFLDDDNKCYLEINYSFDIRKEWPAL
Kind of assay: pull-down.
Take B1: the binding result is recorded as “binds”.
Next, B2: “binds”; B3: “binds”.
